Data as given in patent US20240117018A1.

Experiments:
Assay in all cases: cell-based or functional assay
[1] = target: HIV-1 Env pseudovirus Du422.1 (HIV-1)
[2] = target: HIV-1 Env pseudovirus PVO.4 (HIV-1)
[3] = target: HIV-1 Env pseudovirus BF1266.431a (HIV-1)
[4] = target: HIV-1 Env pseudovirus ZM109F.PB4 (HIV-1)
[5] = target: HIV-1 Env pseudovirus CNE17 (HIV-1)
[6] = target: HIV-1 Env pseudovirus CNE58 (HIV-1)
[7] = target: HIV-1 Env pseudovirus Ce1176_A3 (HIV-1)
[8] = target: HIV-1 Env pseudovirus 1394C9G1(Rev-) (HIV-1)
[9] = target: HIV-1 Env pseudovirus Q769.d22 (HIV-1)
[10] = target: HIV-1 Env pseudovirus 6535.3 (HIV-1)
[11] = target: HIV-1 Env pseudovirus CAP45.2.00.G3 (HIV-1)
[12] = target: HIV-1 Env pseudovirus Q842.d12 (HIV-1)
[13] = target: HIV-1 Env pseudovirus ZM214M.PL15 (HIV-1)
[14] = target: HIV-1 Env pseudovirus RHPA4259.7 (HIV-1)
[15] = target: HIV-1 Env pseudovirus 1054_07_TC4_1499 (HIV-1)
[16] = target: HIV-1 Env pseudovirus CNE53 (HIV-1)
[17] = target: Env of HIV-1 pseudovirus ZM53M.PB12 (HIV-1)
[18] = target: Env of HIV-1 pseudovirus CAP45.2.00.G3 (HIV-1)
[19] = target: Env of HIV-1 pseudovirus HIV-0013095-2.11 (HIV-1)
[20] = target: Env of HIV-1 pseudovirus Du172.17 (HIV-1)
[21] = target: Env of HIV-1 pseudovirus AC10.0.29 (HIV-1)
[22] = target: Env of HIV-1 pseudovirus CNE30 (HIV-1)
[23] = target: Env of HIV-1 pseudovirus 9004SS_A3_4 (HIV-1)
[24] = target: Env of HIV-1 pseudovirus 263-8 (HIV-1)
[25] = target: Env of HIV-1 pseudovirus 6535.3 (HIV-1)
[26] = target: Env of HIV-1 pseudovirus ZM109F.PB4 (HIV-1)
[27] = target: Env of HIV-1 pseudovirus 1394C9G1(Rev-) (HIV-1)
[28] = target: Env of HIV-1 pseudovirus HIV-001428-2.42 (HIV-1)
[29] = target: Env of HIV-1 pseudovirus ZM247v1(Rev-) (HIV-1)
[30] = target: Env of HIV-1 pseudovirus HIV-16845-2.22 (HIV-1)
[31] = target: HIV-1 Env pseudovirus 6480.v4.c25 (HIV-1)
[32] = target: HIV-1 Env pseudovirus 6545.v4.c1 (HIV-1)
[33] = target: HIV-1 Env pseudovirus 6952.v1.c20 (HIV-1)
[34] = target: HIV-1 Env pseudovirus 3301.v1.c24 (HIV-1)
[35] = target: HIV-1 Env pseudovirus 211-9 (HIV-1)
[36] = target: HIV-1 Env pseudovirus T250-4 (HIV-1)

N49P7.2 (antibody)
IC50 [1]: > 50 µg/mL | IC80 [1]: > 50 µg/mL | MPI [1]: 22 | IC50 [2]: 0.237 µg/mL | IC80 [2]: 0.831 µg/mL | MPI [2]: 100 | IC50 [3]: 0.029 µg/mL | IC80 [3]: 0.159 µg/mL | MPI [3]: 100 | IC50 [4]: 0.065 µg/mL | IC80 [4]: 0.321 µg/mL | MPI [4]: 99 | IC50 [5]: 0.376 µg/mL | IC80 [5]: 1.24 µg/mL | MPI [5]: 100 | IC50 [6]: 0.045 µg/mL | IC80 [6]: 0.129 µg/mL | MPI [6]: 100 | IC50 [7]: 0.332 µg/mL | IC80 [7]: 1.08 µg/mL | MPI [7]: 100 | IC50 [8]: > 50 µg/mL | IC80 [8]: > 50 µg/mL | MPI [8]: 20 | IC50 [9]: 0.029 µg/mL | IC80 [9]: 0.14 µg/mL | MPI [9]: 100 | IC50 [10]: 0.152 µg/mL | IC80 [10]: 0.784 µg/mL | MPI [10]: 100 | IC50 [11]: 0.162 µg/mL | IC80 [11]: 2.49 µg/mL | MPI [11]: 95 | IC50 [12]: 0.045 µg/mL | IC80 [12]: 0.2 µg/mL | MPI [12]: 100 | IC50 [13]: 0.559 µg/mL | IC80 [13]: 4.53 µg/mL | MPI [13]: 100 | IC50 [14]: 0.1 µg/mL | IC80 [14]: 0.289 µg/mL | MPI [14]: 100 | IC50 [15]: 2.04 µg/mL | IC80 [15]: 10.7 µg/mL | MPI [15]: 99 | IC50 [16]: 0.1 µg/mL | IC80 [16]: 0.277 µg/mL | MPI [16]: 100

10-1074 (antibody)
IC50 [17]: > 50000 ng/mL | IC80 [17]: > 50 µg/mL | IC50 [18]: > 50000 ng/mL | IC80 [18]: > 50000 ng/mL | IC50 [19]: > 50000 ng/mL | IC80 [19]: > 50000 ng/mL | IC50 [20]: 0.121 µg/mL | IC80 [20]: 0.43 µg/mL | IC50 [21]: 0.022 µg/mL | IC80 [21]: 0.11 µg/mL | IC50 [22]: 0.363 µg/mL | IC80 [22]: 1.2 µg/mL | IC50 [23]: 0.011 µg/mL | IC80 [23]: 0.03 µg/mL | IC50 [24]: 0.666 µg/mL | IC80 [24]: 6.53 µg/mL | IC50 [25]: 0.014 µg/mL | IC80 [25]: 0.026 µg/mL | IC50 [26]: > 50 µg/mL | IC80 [26]: > 50 µg/mL | IC50 [27]: 0.05 µg/mL | IC80 [27]: 0.191 µg/mL | IC50 [28]: 0.044 µg/mL | IC80 [28]: 0.261 µg/mL | IC50 [29]: 0.042 µg/mL | IC80 [29]: 0.186 µg/mL | IC50 [30]: 1.17 µg/mL | IC80 [30]: 5.83 µg/mL

VRC01 (antibody)
IC50 (Titer in TZM.bl cells) [1]: > 50 µg/mL | IC80 (Titer in TZM.bl cells) [1]: > 50 µg/mL | IC50 (Titer in TZM.bl cells) [2]: 0.22 µg/mL | IC80 (Titer in TZM.bl cells) [2]: 1.2 µg/mL | IC50 (Titer in TZM.bl cells) [31]: 0.04 µg/mL | IC80 (Titer in TZM.bl cells) [31]: 0.09 µg/mL | IC50 (Titer in TZM.bl cells) [3]: 0.07 µg/mL | IC80 (Titer in TZM.bl cells) [3]: 0.23 µg/mL | IC50 (Titer in TZM.bl cells) [4]: 0.13 µg/mL | IC80 (Titer in TZM.bl cells) [4]: 0.75 µg/mL | IC50 (Titer in TZM.bl cells) [32]: > 50 µg/mL | IC80 (Titer in TZM.bl cells) [32]: > 50 µg/mL | IC50 (Titer in TZM.bl cells) [7]: 2.25 µg/mL | IC80 (Titer in TZM.bl cells) [7]: 8.1 µg/mL | IC50 (Titer in TZM.bl cells) [8]: 0.36 µg/mL | IC80 (Titer in TZM.bl cells) [8]: 1.28 µg/mL | IC50 (Titer in TZM.bl cells) [9]: 0.08 µg/mL | IC80 (Titer in TZM.bl cells) [9]: 0.29 µg/mL | IC50 (Titer in TZM.bl cells) [10]: 0.54 µg/mL | IC80 (Titer in TZM.bl cells) [10]: 2.7 µg/mL | IC80 (Titer in TZM.bl cells) [11]: > 50 µg/mL | IC50 (Titer in TZM.bl cells) [33]: 0.04 µg/mL | IC80 (Titer in TZM.bl cells) [33]: 0.12 µg/mL | IC50 (Titer in TZM.bl cells) [12]: 0.03 µg/mL | IC80 (Titer in TZM.bl cells) [12]: 0.096 µg/mL | IC50 (Titer in TZM.bl cells) [34]: 0.14 µg/mL | IC80 (Titer in TZM.bl cells) [34]: 0.32 µg/mL | IC50 (Titer in TZM.bl cells) [35]: 14.3 µg/mL | IC80 (Titer in TZM.bl cells) [35]: > 50 µg/mL | IC50 (Titer in TZM.bl cells) [13]: 0.44 µg/mL | IC80 (Titer in TZM.bl cells) [13]: 2.6 µg/mL | IC50 (Titer in TZM.bl cells) [36]: > 50 µg/mL | IC80 (Titer in TZM.bl cells) [36]: > 50 µg/mL | IC50 (Titer in TZM.bl cells) [14]: 0.06 µg/mL | IC80 (Titer in TZM.bl cells) [14]: 0.185 µg/mL | IC50 (Titer in TZM.bl cells) [15]: 0.71 µg/mL | IC80 (Titer in TZM.bl cells) [15]: 2.85 µg/mL

PG16 (antibody)
IC50 [17]: 7 ng/mL | IC80 [17]: 0.051 µg/mL | IC50 [18]: 1 ng/mL | IC80 [18]: 3 ng/mL | IC50 [19]: 2 ng/mL | IC80 [19]: 6 ng/mL | IC50 [20]: 0.033 µg/mL | IC80 [20]: 0.213 µg/mL | IC50 [21]: 0.023 µg/mL | IC80 [21]: 0.417 µg/mL | IC50 [22]: > 50 µg/mL | IC80 [22]: > 50 µg/mL | IC50 [23]: 0.02 µg/mL | IC80 [23]: 0.111 µg/mL | IC50 [24]: 0.347 µg/mL | IC80 [24]: 4.97 µg/mL | IC50 [25]: 0.653 µg/mL | IC80 [25]: > 50 µg/mL | IC50 [26]: 7.03 µg/mL | IC80 [26]: > 50 µg/mL | IC50 [27]: 0.008 µg/mL | IC80 [27]: 0.056 µg/mL | IC50 [28]: 0.039 µg/mL | IC80 [28]: 0.25 µg/mL | IC50 [29]: 0.016 µg/mL | IC80 [29]: 0.189 µg/mL | IC50 [30]: 3.13 µg/mL | IC80 [30]: > 50 µg/mL
